According to US20220332795A1 (ARO BIOTHERAPEUTICS, published 2022):
Positions count from the first letter of the chain named.

B1: SEQ ID NO 241 (designed binder, not shown: small tags and cut ends)
chain: MLPAPKNLVVSRVTEDSARLSWTAPDAAFDSFFIGYLEPQPPGEAIHLGVPGSERSYDLTGLKPGTEYNVTIQGVKGGFPSIPLFASFTT
B2: SEQ ID NO 225 (designed binder, not shown: small tags and cut ends)
chain: MLPAPKNLVVSRVTEDSARLSWTAPDAAFDSFYIAYAEPRPDGEAILLQVPGSERSYDLTGLKPGTEYSVLIHGVKGGLLSSPLSASFTT
B3: SEQ ID NO 244 (designed binder, not shown: small tags and cut ends)
chain: B2 chain with L47S, S85G, S87H
B4: SEQ ID NO 230 (designed binder, not shown: small tags and cut ends)
chain: B2 chain with L47W, Q49L, S85V, S87F
B5: SEQ ID NO 217 (designed binder, not shown: small tags and cut ends)
chain: B2 chain with L47I, Q49E, S85R, S87V
B6: SEQ ID NO 233 (designed binder, not shown: small tags and cut ends)
chain: B2 chain with L47Q, Q49F, S85K, S87Y
B7: SEQ ID NO 214 (designed binder, not shown: small tags and cut ends)
chain: B2 chain with L47G, S85C, S87E
B8: SEQ ID NO 226 (designed binder, not shown: small tags and cut ends)
chain: B2 chain with L47G, Q49H, S85T
B9: SEQ ID NO 228 (designed binder, not shown: small tags and cut ends)
chain: B2 chain with L47V, Q49R, S85A
B10: SEQ ID NO 248 (designed binder, not shown: small tags and cut ends)
chain: B2 chain with L47W, Q49G, S85H, S87T
B11: SEQ ID NO 224 (designed binder, not shown: small tags and cut ends)
chain: B2 chain with Q49R, S85V, S87E
B12: SEQ ID NO 219 (designed binder, not shown: small tags and cut ends)
chain: B2 chain with L47S, Q49K, S85E, S87I
B13: SEQ ID NO 239 (designed binder, not shown: small tags and cut ends)
chain: B2 chain with L47Q, Q49V, S85Y, S87I
B14: SEQ ID NO 245 (designed binder, not shown: small tags and cut ends)
chain: B2 chain with L47A, Q49W, S85V
B15: SEQ ID NO 209 (designed binder, not shown: small tags and cut ends)
chain: B2 chain with E54C, S85T, S87I
notes: also called ABX1198
B16: SEQ ID NO 212 (designed binder, not shown: small tags and cut ends)
chain: B2 chain with L47W, Q49A, S85H, S87Q
B17: SEQ ID NO 207 (designed binder, not shown: small tags and cut ends)
chain: B2 chain with L47H, Q49S, S85A, S87Y
B18: SEQ ID NO 236 (designed binder, not shown: small tags and cut ends)
chain: B2 chain with S85D, S87E
B19: SEQ ID NO 242 (designed binder, not shown: small tags and cut ends)
chain: B2 chain with L47Q, Q49L, S85Y, S87A
B20: SEQ ID NO 215 (designed binder, not shown: small tags and cut ends)
chain: B2 chain with L47V, Q49W, S85I, S87E
B21: SEQ ID NO 218 (designed binder, not shown: small tags and cut ends)
chain: B2 chain with L47H, Q49V, S87I
B22: SEQ ID NO 206 (designed binder, not shown: small tags and cut ends)
chain: B2 chain with L47G, Q49D, S87I
B23: SEQ ID NO 240 (designed binder, not shown: small tags and cut ends)
chain: B2 chain with L47S, Q49S, S85H, S87K
B24: SEQ ID NO 229 (designed binder, not shown: small tags and cut ends)
chain: B2 chain with L47Q, Q49L, S85V, S87H
B25: SEQ ID NO 246 (designed binder, not shown: small tags and cut ends)
chain: B2 chain with L47Q, Q49H, S85Y, S87F
B26: SEQ ID NO 227 (designed binder, not shown: small tags and cut ends)
chain: B2 chain with L47G, Q49R, S87I
B27: SEQ ID NO 234 (designed binder, not shown: small tags and cut ends)
chain: B2 chain with L47V, Q49V, S87I
B28: SEQ ID NO 247 (designed binder, not shown: small tags and cut ends)
chain: B2 chain with Q49H, S85R
B29: SEQ ID NO 237 (designed binder, not shown: small tags and cut ends)
chain: B2 chain with L47V, Q49A, S85Y
B30: SEQ ID NO 211 (designed binder, not shown: small tags and cut ends)
chain: B2 chain with L47Q, Q49H, S85V, S87I

Target: T1, CD71 apical domain (human, UniProt P02786 189-383, limits assumed)
T1 construct: domain: apical domain
T1 sequence (P02786 189-383 limits assumed): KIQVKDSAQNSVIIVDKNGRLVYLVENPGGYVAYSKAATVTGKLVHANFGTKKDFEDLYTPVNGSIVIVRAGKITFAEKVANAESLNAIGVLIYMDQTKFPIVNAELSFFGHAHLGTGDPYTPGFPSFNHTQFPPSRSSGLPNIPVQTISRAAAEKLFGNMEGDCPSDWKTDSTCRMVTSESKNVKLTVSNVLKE
Assay: solution ELISA screen (luminescence)

Binder | RLU
B1 | 5.05e+06 RLU
B2 | 7.38e+06 RLU
B3 | 5.93e+06 RLU
B4 | 6.11e+06 RLU
B5 | 6.81e+06 RLU
B6 | 5.61e+06 RLU
B7 | 4.3e+06 RLU
B8 | 6.38e+06 RLU
B9 | 7.04e+06 RLU
B10 | 5.45e+06 RLU
B11 | 6.82e+06 RLU
B12 | 4.95e+06 RLU
B13 | 4.65e+06 RLU
B14 | 4.77e+06 RLU
B15 | 8.3e+06 RLU
B16 | 5.09e+06 RLU
B17 | 7.11e+06 RLU
B18 | 7.41e+06 RLU
B19 | 4.9e+06 RLU
B20 | 5.84e+06 RLU
B21 | 2.85e+06 RLU
B22 | 5.22e+06 RLU
B23 | 5.26e+06 RLU
B24 | 5.77e+06 RLU
B25 | 47500 RLU
B26 | 4.99e+06 RLU
B27 | 7.04e+06 RLU
B28 | 7.51e+06 RLU
B29 | 7.01e+06 RLU
B30 | 4.74e+06 RLU

Target: T2, human CD71 extracellular domain (human, UniProt P02786 89-760, biotinylated)
T2 construct: extracellular domain; also called hCD71; huCD71 ECD
T2 sequence (P02786 other isoform, or with tags, fused parts or gaps): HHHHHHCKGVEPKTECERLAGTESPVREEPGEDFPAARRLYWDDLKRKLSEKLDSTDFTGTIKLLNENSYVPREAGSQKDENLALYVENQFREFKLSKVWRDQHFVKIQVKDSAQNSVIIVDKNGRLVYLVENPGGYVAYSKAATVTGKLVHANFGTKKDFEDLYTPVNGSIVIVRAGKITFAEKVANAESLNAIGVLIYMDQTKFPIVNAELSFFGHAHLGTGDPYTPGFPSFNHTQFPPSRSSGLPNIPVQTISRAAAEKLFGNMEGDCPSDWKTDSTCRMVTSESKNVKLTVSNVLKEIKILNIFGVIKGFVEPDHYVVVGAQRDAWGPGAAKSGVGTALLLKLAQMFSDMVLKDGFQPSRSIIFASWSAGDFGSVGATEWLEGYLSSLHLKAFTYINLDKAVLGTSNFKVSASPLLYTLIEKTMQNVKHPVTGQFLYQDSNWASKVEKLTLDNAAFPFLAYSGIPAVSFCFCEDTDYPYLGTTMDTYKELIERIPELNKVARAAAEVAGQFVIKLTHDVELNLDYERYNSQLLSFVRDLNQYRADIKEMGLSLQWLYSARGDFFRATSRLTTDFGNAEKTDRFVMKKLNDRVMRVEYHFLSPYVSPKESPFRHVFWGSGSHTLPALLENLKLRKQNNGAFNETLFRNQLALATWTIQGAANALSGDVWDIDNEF
Assay: solution ELISA screen (luminescence)

Binder | RLU
B1 | 3.1e+06 RLU
B2 | 4.06e+06 RLU
B3 | 1.75e+06 RLU
B4 | 1.1e+06 RLU
B5 | 3.48e+06 RLU
B6 | 772000 RLU
B7 | 393000 RLU
B8 | 2.15e+06 RLU
B9 | 3.88e+06 RLU
B10 | 756000 RLU
B11 | 3.55e+06 RLU
B12 | 460000 RLU
B13 | 559000 RLU
B14 | 774000 RLU
B15 | 6.2e+06 RLU
B16 | 467000 RLU
B17 | 2.74e+06 RLU
B18 | 4.07e+06 RLU
B19 | 648000 RLU
B20 | 2.02e+06 RLU
B21 | 144000 RLU
B22 | 828000 RLU
B23 | 610000 RLU
B24 | 1.44e+06 RLU
B25 | 548000 RLU
B26 | 635000 RLU
B27 | 4.51e+06 RLU
B28 | 4.3e+06 RLU
B29 | 4.58e+06 RLU
B30 | 660000 RLU

Target: T1, CD71 apical domain
Assay: solution ELISA screen, signal ratio to HSA control

Binder | apical domain:HSA
B1 | 190 ratio
B2 | 435 ratio
B3 | 329 ratio
B4 | 191 ratio
B5 | 420 ratio
B6 | 255 ratio
B7 | 143 ratio
B8 | 400 ratio
B9 | 238 ratio
B10 | 160 ratio
B11 | 261 ratio
B12 | 418 ratio
B13 | 221 ratio
B14 | 259 ratio
B15 | 466 ratio
B16 | 292 ratio
B17 | 58.8 ratio
B18 | 477 ratio
B19 | 241 ratio
B20 | 261 ratio
B21 | 202 ratio
B22 | 373 ratio
B23 | 292 ratio
B24 | 374 ratio
B25 | 1.8 ratio
B26 | 177 ratio
B27 | 338 ratio
B28 | 394 ratio
B29 | 253 ratio
B30 | 363 ratio

Target: T2, human CD71 extracellular domain
Assay: solution ELISA screen, signal ratio to HSA control

Binder | hCD71:HSA
B1 | 117 ratio
B2 | 239 ratio
B3 | 97.1 ratio
B4 | 34.4 ratio
B5 | 214 ratio
B6 | 35.1 ratio
B7 | 13 ratio
B8 | 135 ratio
B9 | 131 ratio
B10 | 22.2 ratio
B11 | 136 ratio
B12 | 38.8 ratio
B13 | 26.5 ratio
B14 | 41.9 ratio
B15 | 348 ratio
B16 | 26.8 ratio
B17 | 22.6 ratio
B18 | 262 ratio
B19 | 31.9 ratio
B20 | 90.4 ratio
B21 | 10.2 ratio
B22 | 59.1 ratio
B23 | 33.9 ratio
B24 | 93.4 ratio
B25 | 21.3 ratio
B26 | 22.5 ratio
B27 | 216 ratio
B28 | 226 ratio
B29 | 165 ratio
B30 | 50.6 ratio
